Assays:
human IgG (human) [1] = assay: depletion of IgG from 50 µL human serum with 1 mg nanoparticles, 60 min with stirring at room temperature
human IgG (human) [2] = assay: depletion of 10 mg/ml IgG solution, 1 mg particles per 50 µL, single half-hour incubation

protein G' (protein G devoid of the albumin recognition region), covalently bound to silica mesoporous nanoparticles (from UniProt P19909 314-497)
IgG elimination capacity (human IgG (human) [1]): > 90% | percent of IgG removed (human IgG (human) [2]): > 90%
